Data published in patent US8114638B2, “Arabinitol dehydrogenase from Neurospora crassa” (The Board of Trustees of the University of Illinois, priority 2007, dated 2012).

Tested on: OC[C@H](O)C(O)[C@@H](O)CO
Experiment: purified protein, by the assay type
Conditions: other: with indicated substrate, 25° C., 50 mM Tris pH 8.0, saturated NAD+ (2 mM)
Method: Initial rates were determined using a Varian Cary 100 Bio UV-visible spectrophotometer (Varian) at 25° C. in 50 mM Tris (pH 8.0). […] The kinetic data were analyzed with a modified version of Cleland's program (Cleland, W. W. (1979) Statistical analysis of enzyme kinetic data, Methods Enzymol 63, 103-138.).
Kinetics. The data were used to calculate the kinetic constants for various substrates by fitting the Michaelis-Menten equation using Origin 5.0. […] The data represent averages of assays performed in duplicate or triplicate on two separate occasions.

N. crassa LAD (Neurospora crassa OR74A)
Km: 18 ± 2 mM
kcat: 20.2 ± 0.5 s⁻¹
kcat/Km: 1120 M⁻¹ s⁻¹
